{
  "source": "the domain aggregation screens of Martell et al. (2025)",
  "assay": "soluble fraction after stress (log2 fold change); higher = more stays soluble; pooled small domains, quantitative proteomics",
  "settings": "stress: 50 degC",
  "method_in_brief": "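Each library was heated to 50°C as a stress step. The libraries, made up of small protein domains, were pooled and analysed at high throughput by quantitative proteomics. The reported value is the base-two logarithm of the fold change in each protein's soluble amount after stress, taken as a measure of aggregation propensity. The higher the value, the more protein stays in solution.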",
  "data": [
    {"sequence": "HMKVGEIIKAKREELKIPLVNFAKELDISQGYLSQIENGIKTNPNLDIILKIIHRLDIDLAMLL", "values": [
      {"measurement": "soluble fraction (log2)", "result": -1.32}
    ]},
    {"sequence": "HMLNVNDVIARNVRAARERKKLTLDGAAELTGVSRSMLAQIEKGEVNPTISVVWKIANGFKVSFTSLVEPQ", "values": [
      {"measurement": "soluble fraction (log2)", "result": -0.498}
    ]},
    {"sequence": "HMLADRANMAPAALRQIMTAIDGGNVTPKQIESATGMAHATVARALRKMLDDGLIANDGKGRYTVLT", "values": [
      {"measurement": "soluble fraction (log2)", "result": -0.0609}
    ]},
    {"sequence": "HMNLDPIKRKSEILSLFESHKNVKFNEIFFEKVNKEFTVLTFLIILELVKDNIIDFSQTQEGLIEFFTR", "values": [
      {"measurement": "soluble fraction (log2)", "result": -0.115}
    ]},
    {"sequence": "HMDSLEIEEPITVKSLSAASGLKISDIIRKLMQEGIMATANQVIDREQAEAVLIDYNVDLVVKR", "values": [
      {"measurement": "soluble fraction (log2)", "result": -0.248}
    ]},
    {"sequence": "HMSTSFQVQVSVLDLRIRKEPTVKGQEVGKISKGIHTITETRSADGYTWGKLESGQGWIALEFTTKLD", "values": [
      {"measurement": "soluble fraction (log2)", "result": -0.194}
    ]},
    {"sequence": "HMGGLAEGTKITLQNTVNVRASMGEDAEKIGTAYAGEKVTVIMSYAEGWTKVTWNDKTGYIKTSLL", "values": [
      {"measurement": "soluble fraction (log2)", "result": -0.634}
    ]},
    {"sequence": "HMALPRYFFRTRENGAVLFKTPVNNHQNRLEMHQIAAINIRNETVKPLGDTVLTDEETELIADWMRERKTV", "values": [
      {"measurement": "soluble fraction (log2)", "result": -0.72}
    ]},
    {"sequence": "HMNSTGVYQRPDGFWEYRFTLSINGKKLPRRKSTDLMGNKLKTKREAIKAREEAIIALRTEKTI", "values": [
      {"measurement": "soluble fraction (log2)", "result": -0.994}
    ]},
    {"sequence": "HMQLTVAVLIKNISKGQVISQGFLGFEARPERQIRGAYTNISEVLGRKAKSNIAVGTILKARHLDT", "values": [
      {"measurement": "soluble fraction (log2)", "result": -2.94}
    ]},
    {"sequence": "HMENVQLRNFAIKATEAGIIKLSSDQRTFMWASNQKKLMTVPFDEHPYSAMAQFFKTDEGLAVFKSIEKKL", "values": [
      {"measurement": "soluble fraction (log2)", "result": -1.12}
    ]},
    {"sequence": "HMKPLAQQVNDYLAATRTSIATLANEIPGYSRPTISRYLAGKYDGDITTIEKLLAEWLAQRTG", "values": [
      {"measurement": "soluble fraction (log2)", "result": -0.354}
    ]},
    {"sequence": "HMAKIATTVYEQIRTAILNGELSNSERLVEEDLAVSMGISRTPVREALRRLAAEGLVDVSPNRGARVAE", "values": [
      {"measurement": "soluble fraction (log2)", "result": -0.293}
    ]},
    {"sequence": "HMHDAKTQLQEEAARRGLPAPVYTRIGQEGPDHAPRFRVRADVGPHQAEAVAGSLKLAQAEAARAILRQMP", "values": [
      {"measurement": "soluble fraction (log2)", "result": 0.228}
    ]},
    {"sequence": "HMDHWQSVNSALELLEVSRRTLYDYISRKKLQTKKEGKYRYVWIDDDVIEEIKTSKSAYIEINN", "values": [
      {"measurement": "soluble fraction (log2)", "result": -2.19}
    ]},
    {"sequence": "HMKQISNTDELESMAKNIIQENPDQVSKFKNGNEKLFGWFVGQMMKSTGGTANPKVVNEILKNLLN", "values": [
      {"measurement": "soluble fraction (log2)", "result": 0.152}
    ]},
    {"sequence": "HMFPELNAEETQVVQLLQKQTEGMQVNSLVVESNIPITRMSGILFELELKGIIRNYAGGVYKL", "values": [
      {"measurement": "soluble fraction (log2)", "result": -2.16}
    ]},
    {"sequence": "HMEDTSTLSIKHKIKELINQESPQAILSDDKLVELLAAQGIKIARRTIAKYRETMNIPTSAERKRQKRPP", "values": [
      {"measurement": "soluble fraction (log2)", "result": 0.479}
    ]},
    {"sequence": "HMIRMPNLIGLSVRSAEQQLVIAGLKKGIVHQVNDPRLKEVIDMQALGHKITAGSSIPKGTEVDLYIGNGT", "values": [
      {"measurement": "soluble fraction (log2)", "result": 0.146}
    ]},
    {"sequence": "HMLSDADLAAFREVFDLVDKDKSGAIEMEEVEELTKLLGLDLTRDEVELLVREIDKDGNGEVDFEEFLLVM", "values": [
      {"measurement": "soluble fraction (log2)", "result": 0.0193}
    ]},
    {"sequence": "HMKTTKESLLEYIQREVFTDSIHKEGLSTNEIADAFQIQRSNVSSLLNTLVKEGKLEKTTGRPVLYRIPEK", "values": [
      {"measurement": "soluble fraction (log2)", "result": 0.0655}
    ]},
    {"sequence": "HMLAQISDEGAIGAVVARVLDAHPNEVARYHAGEEKVAKFLMGAAMRELRGKGDPAVVQRLLSEGLDARRV", "values": [
      {"measurement": "soluble fraction (log2)", "result": 0.119}
    ]},
    {"sequence": "HMNMTDVLVVNQTVRGGTQITESMLSVKKVDKSSLPDNYLKASLKDEVVGKYFDLGLTSGGVLTKDNISVS", "values": [
      {"measurement": "soluble fraction (log2)", "result": 0.00597}
    ]},
    {"sequence": "HMGSQQIEEGMRRLVASGALRPGASVPSVRDLARDLQVNPATVVRAYQRLVDAGLLVVRRGEGTFVAE", "values": [
      {"measurement": "soluble fraction (log2)", "result": -0.588}
    ]},
    {"sequence": "HMDPDARQDAEVWLLDFLSAGPRTAQEIFTAARVEGHTRVTVKRAKATAGIQSVKQDFDGPWVWVLPGSG", "values": [
      {"measurement": "soluble fraction (log2)", "result": -0.491}
    ]},
    {"sequence": "HMSSYMQMQLERLESLLQKNDLTDSDKYDIRQLVEDLDKVPESVSPNLVGAYMTIKNRYASVLKTVL", "values": [
      {"measurement": "soluble fraction (log2)", "result": 0.501}
    ]},
    {"sequence": "HMNGAAAEQARKQLMTALKASEFIAQDKLDEWLDALALPQEKRSAIIDAVDELDYEEAISELEN", "values": [
      {"measurement": "soluble fraction (log2)", "result": -0.0176}
    ]},
    {"sequence": "HMFFFILNKGAKSGGEITHAVLNGSIVSKPAGWDAFHGLVLAKEKLSSEEIQRQMKELGVEMEIVPL", "values": [
      {"measurement": "soluble fraction (log2)", "result": -0.58}
    ]},
    {"sequence": "HMVKRAYGEYVNVKLTDADLSKLKADFPADWQERIERLSTYMASTGKTYKNHLATIRNWARRDAERVSA", "values": [
      {"measurement": "soluble fraction (log2)", "result": 0.22}
    ]},
    {"sequence": "HMKISIPQEYFEIYNVLKQRPMHINEISKILKKPVSEISGTISLMEIEGYITKLTTDQYVLKKI", "values": [
      {"measurement": "soluble fraction (log2)", "result": -0.143}
    ]},
    {"sequence": "HMDSEEVYQMTKHKMDAAQISVAKRIHINLVLVKLLELHHLGYDLRHYHAQHHAFIKRLNLPEYFRFD", "values": [
      {"measurement": "soluble fraction (log2)", "result": -1.66}
    ]},
    {"sequence": "HMIEEIAVPEILGMQEEEAKAKIEGLGLVFNVTDRVKSNEYEKGEVMYQSVGPDDTTVKSGYPINVTISEG", "values": [
      {"measurement": "soluble fraction (log2)", "result": -0.0543}
    ]},
    {"sequence": "HMIEGSSDWKPNMILDDGGDLTKIIHEEYQDLLDDIRGLSEETTTGVLRLYEMEKENSLAVPAINVND", "values": [
      {"measurement": "soluble fraction (log2)", "result": 0.276}
    ]},
    {"sequence": "HMGGKYKGVIIGHLIDKTLRYNELQKLISHATPKMLIQQLKELEADGIIQRKLYPVVPPKTEYSLTERG", "values": [
      {"measurement": "soluble fraction (log2)", "result": -0.754}
    ]},
    {"sequence": "HMGISQAQAMQALRKLIEEEDKHTPLSDQTLMERLKAAGIPLARRTIAKYRESLGIPSAAQRK", "values": [
      {"measurement": "soluble fraction (log2)", "result": -0.109}
    ]},
    {"sequence": "HMSNEEEIEGLVSKVLDNNPEIVERIRSGEDKLISYLVGEVMKQSSSSLNPGIVKEIIVNKTI", "values": [
      {"measurement": "soluble fraction (log2)", "result": 0.161}
    ]},
    {"sequence": "HMQVSDANQLTDVVKSIIKQYPVEVEKYKSGKKALFGFFMGKVMENLKGKSNPKILKNVLTEILD", "values": [
      {"measurement": "soluble fraction (log2)", "result": 0.108}
    ]},
    {"sequence": "HMGTGELLVHVIGAVHSPGVVRLPTGARVVDAIDAAGGAREDAQTEQLNLARLVDDGEQVRVPVVGESVD", "values": [
      {"measurement": "soluble fraction (log2)", "result": -0.0181}
    ]},
    {"sequence": "HMLTQEEITRRRGEILTAAMGVILRKGFLETSMREIAEAAGVGKSTLYDYFPSKDEIMIAYVVD", "values": [
      {"measurement": "soluble fraction (log2)", "result": -0.938}
    ]},
    {"sequence": "HMQRSVNYSELHEIKERVFDALYSSPMSMPDLLAWLKGDEEHTISVIRLMQDNGDIEMGEDGRLAVV", "values": [
      {"measurement": "soluble fraction (log2)", "result": -0.275}
    ]},
    {"sequence": "HMEDEEILNEIRHTEQYVYYFGNYIMEHHVSRGLSKEKVIASLARELQIEIADIREDFDGMIEQIKTNILN", "values": [
      {"measurement": "soluble fraction (log2)", "result": -0.163}
    ]},
    {"sequence": "HMKMLPAEVLTHPAVVALIERGAPTGSITPEEVRQASEDAAVEPRHLKALLAHLSALGISVQIP", "values": [
      {"measurement": "soluble fraction (log2)", "result": -0.217}
    ]},
    {"sequence": "HMDRSIGDIIAELRDLSAEQVERVLAHQRETGVRFGEAAVALGYASKEDVLFALSQQFHYPYAPEE", "values": [
      {"measurement": "soluble fraction (log2)", "result": -0.146}
    ]},
    {"sequence": "HMKEEDLPREYTDILGNSVHERLNIMIHDIIEHSQDKPEVAMSPEREEAMHGLRRWMFDHVYH", "values": [
      {"measurement": "soluble fraction (log2)", "result": -0.202}
    ]},
    {"sequence": "HMRKVTDTHELSSVVKSVIDQWEEKAAEYRAGKSGLLGFFVGEVMKKTGGAADPEAAKSLLQDRLD", "values": [
      {"measurement": "soluble fraction (log2)", "result": 0.18}
    ]},
    {"sequence": "HMKGEKVTKIELSNFIKFLINDLENKGFFNPPEKKDSMIDNIYSIYNKMTLTKKELNMLWGMHKKLK", "values": [
      {"measurement": "soluble fraction (log2)", "result": -1.44}
    ]},
    {"sequence": "HMGTAEDYLLPRRAEILSIIRDHEFANFDLIRRRFLAVNERTLRYDLKKLSDLGLIKKLGKTRGVYYRAAK", "values": [
      {"measurement": "soluble fraction (log2)", "result": -1.49}
    ]},
    {"sequence": "HMAELAKAKLDAAVQVALLKAGALDTDYLAYKLQGMDGVALDDKGSLTGWDTTLETLKSQYPTQFA", "values": [
      {"measurement": "soluble fraction (log2)", "result": -0.302}
    ]},
    {"sequence": "HMQINLKQSSDEELVKIITVQVHHYEPHTVKAAEAEIERRGIDKMRMAHLVKKVAQENTAVQEIQD", "values": [
      {"measurement": "soluble fraction (log2)", "result": 0.18}
    ]},
    {"sequence": "HMNYDPEEKITQIRTMLEIHSRIEFNEIITPATRRGEIIIIFLALLHMIKRGYIVVRQHRLFGDITIFARD", "values": [
      {"measurement": "soluble fraction (log2)", "result": -0.152}
    ]}
  ]
}
